What all share (experiment): SPR
Assay [1] addresses NL1A (rat neuroligin 1 cholinesterase-like region, with insert A, without insert B) (rat).
For assay [2], the target named is NL2Δ (rat neuroligin 2 cholinesterase-like region, without insert A) (rat).
For assay [3], the target named is NL3Δ (rat neuroligin 3 cholinesterase-like region, without inserts A1 and A2) (rat).
Assay [4] concerns the target NL1Δ (rat neuroligin 1 cholinesterase-like region, without inserts A and B) (rat).
The target of assay [5] is NL3A1 (rat neuroligin 3 cholinesterase-like region, with insert A1, without insert A2) (rat).
Assay [6] has as its target NL3A2 (rat neuroligin 3 cholinesterase-like region, with insert A2, without insert A1) (rat).
The target in assay [7] is NL1B (rat neuroligin 1 cholinesterase-like region, with insert B, without insert A) (rat).
In assay [8] the target is NL1AB (rat neuroligin 1 cholinesterase-like region, with inserts A and B) (rat) (UniProt Q62765).
Assay [9] addresses NL3A1A2 (rat neuroligin 3 cholinesterase-like region, with inserts A1 and A2) (rat) (UniProt Q62889).
The target in assay [10] is NL2A (rat neuroligin 2 cholinesterase-like region, with insert A) (rat) (UniProt Q62888).

Chain of β-NRX1+4 (mouse β-neurexin 1 LNS domain, with splice insert 4) (P0DI97 86-288): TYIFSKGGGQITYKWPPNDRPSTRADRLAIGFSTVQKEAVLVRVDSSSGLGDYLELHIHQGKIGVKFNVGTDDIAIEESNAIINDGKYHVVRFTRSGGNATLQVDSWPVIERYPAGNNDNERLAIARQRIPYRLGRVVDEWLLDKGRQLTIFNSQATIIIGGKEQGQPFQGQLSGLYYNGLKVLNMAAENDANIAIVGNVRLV
Chain of β-NRX2+4 (rat β-neurexin 2 LNS domain, with splice insert 4) (Q63376 87-290): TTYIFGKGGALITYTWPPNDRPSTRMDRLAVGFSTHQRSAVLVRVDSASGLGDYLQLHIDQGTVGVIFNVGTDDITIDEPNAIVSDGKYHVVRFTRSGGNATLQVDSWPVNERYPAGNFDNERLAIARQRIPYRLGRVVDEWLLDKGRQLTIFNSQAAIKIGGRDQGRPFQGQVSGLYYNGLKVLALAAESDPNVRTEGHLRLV

“β-NRX1+4 (mouse β-neurexin 1 LNS domain, with splice insert 4) (from UniProt P0DI97 86-288) (domain or fragment)”: the Kd in assay [1] was determined as 2100 nM; in [2] it was 3520 nM; in [3] it was 23.8 µM; in assay [4], 1540 nM; in [5], 12 µM; in assay [6] it was 21.9 µM. Besides, in assay [7], the Kd came out at 2750 nM.
As for “β-NRX1Δ4 (mouse β-neurexin 1 LNS domain, lacking splice insert 4) (domain or fragment)”, the Kd in [1] worked out at 845 nM; in assay [2], 964 nM; in assay [8] it was 1210 nM; in [3] it was 8.17 µM; in assay [4] it was 828 nM; in [5], 7.45 µM. For the same substance, the Kd came out at 6.57 µM in assay [9], 7.15 µM in assay [6] and 1160 nM in assay [7].
With “β-NRX2+4 (rat β-neurexin 2 LNS domain, with splice insert 4) (from UniProt Q63376 87-290) (domain or fragment)”, the dissociation constant (Kd) came out at 3320 nM in assay [1]; 3390 nM in [2]; 56.8 µM in assay [3]; 3770 nM in assay [4]; 20.5 µM in assay [5]; 42.2 µM in assay [6]. Further, the Kd in assay [7] was found to be 5480 nM.
As to “β-NRX2Δ4 (rat β-neurexin 2 LNS domain, lacking splice insert 4) (domain or fragment)”, the dissociation constant (Kd) came out at 1470 nM in assay [1]; 706 nM in [2]; 2290 nM in assay [8]; 16.5 µM in assay [3]; 917 nM in assay [4]; 9.05 µM in assay [5]. Further, the Kd in assay [9] worked out at 15.3 µM; in assay [7] it was 2210 nM.
Take “β-NRX3+4 (mouse β-neurexin 3 LNS domain, with splice insert 4) (domain or fragment)”: the Kd in assay [1] was 246 nM; in assay [10], 239 nM; in assay [2], 262 nM; in [8], 393 nM; in assay [3] it was 9.73 µM; in assay [4], 332 nM. The values for the Kd in assay [5], in [9] and in assay [7] were 4.32 µM, 9.39 µM and 365 nM, respectively.
As for “β-NRX3Δ4 (mouse β-neurexin 3 LNS domain, lacking splice insert 4) (domain or fragment)”, the Kd in assay [1] was 782 nM; in assay [10] it was 369 nM; in [2], 418 nM; in assay [3], 10.1 µM; in [4] it was 1020 nM; in assay [5], 6.26 µM. Further, the Kd in [9] was determined as 10.9 µM; in assay [6] it was 11.2 µM.

(Values after paper PMC2910870.)
